Measured values reported in patent US20190381150.

Biological target: Human lactoferrin (lactoferrin from human milk, Sigma) (UniProt P02788)
Sequence (P02788 20-710): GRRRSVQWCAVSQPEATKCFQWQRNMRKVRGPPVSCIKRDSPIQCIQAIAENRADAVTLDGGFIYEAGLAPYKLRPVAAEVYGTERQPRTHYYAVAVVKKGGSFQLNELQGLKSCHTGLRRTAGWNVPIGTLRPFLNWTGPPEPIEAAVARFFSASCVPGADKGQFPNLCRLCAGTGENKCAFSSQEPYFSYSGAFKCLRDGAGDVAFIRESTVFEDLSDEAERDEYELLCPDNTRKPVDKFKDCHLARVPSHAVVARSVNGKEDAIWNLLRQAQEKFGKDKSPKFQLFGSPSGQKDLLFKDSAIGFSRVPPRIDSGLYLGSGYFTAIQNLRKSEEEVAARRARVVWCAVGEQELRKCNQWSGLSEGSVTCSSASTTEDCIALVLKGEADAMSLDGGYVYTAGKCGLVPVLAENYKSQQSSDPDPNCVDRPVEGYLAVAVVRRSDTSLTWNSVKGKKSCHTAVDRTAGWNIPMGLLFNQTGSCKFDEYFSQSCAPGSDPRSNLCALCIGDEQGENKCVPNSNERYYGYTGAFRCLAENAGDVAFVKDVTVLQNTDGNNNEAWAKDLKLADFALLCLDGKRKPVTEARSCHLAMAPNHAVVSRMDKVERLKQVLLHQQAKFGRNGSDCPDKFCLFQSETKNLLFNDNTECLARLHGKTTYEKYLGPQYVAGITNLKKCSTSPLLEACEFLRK

## EndoBI-1 D184N (Asp 184 of EndoBI-1 mutated to Asn184), recombinant, signal sequence and transmembrane domains deleted
  shift in molecular weight on SDS-PAGE of human milk after overnight incubation: No change was observed when the milk sample was incubated with EndoBI-1 D184N
